Numbering of substitutions follows the chain as printed.

Experimental findings from patent US20240174744A1 (SCIRHOM, published 2024) are described below.

The target of assay [1] is T1, human iRhom2 (inactive rhomboid protein 2, isoform 1), endogenously expressed on human cells (human, UniProt Q6PJF5 1-856).
T1 sequence: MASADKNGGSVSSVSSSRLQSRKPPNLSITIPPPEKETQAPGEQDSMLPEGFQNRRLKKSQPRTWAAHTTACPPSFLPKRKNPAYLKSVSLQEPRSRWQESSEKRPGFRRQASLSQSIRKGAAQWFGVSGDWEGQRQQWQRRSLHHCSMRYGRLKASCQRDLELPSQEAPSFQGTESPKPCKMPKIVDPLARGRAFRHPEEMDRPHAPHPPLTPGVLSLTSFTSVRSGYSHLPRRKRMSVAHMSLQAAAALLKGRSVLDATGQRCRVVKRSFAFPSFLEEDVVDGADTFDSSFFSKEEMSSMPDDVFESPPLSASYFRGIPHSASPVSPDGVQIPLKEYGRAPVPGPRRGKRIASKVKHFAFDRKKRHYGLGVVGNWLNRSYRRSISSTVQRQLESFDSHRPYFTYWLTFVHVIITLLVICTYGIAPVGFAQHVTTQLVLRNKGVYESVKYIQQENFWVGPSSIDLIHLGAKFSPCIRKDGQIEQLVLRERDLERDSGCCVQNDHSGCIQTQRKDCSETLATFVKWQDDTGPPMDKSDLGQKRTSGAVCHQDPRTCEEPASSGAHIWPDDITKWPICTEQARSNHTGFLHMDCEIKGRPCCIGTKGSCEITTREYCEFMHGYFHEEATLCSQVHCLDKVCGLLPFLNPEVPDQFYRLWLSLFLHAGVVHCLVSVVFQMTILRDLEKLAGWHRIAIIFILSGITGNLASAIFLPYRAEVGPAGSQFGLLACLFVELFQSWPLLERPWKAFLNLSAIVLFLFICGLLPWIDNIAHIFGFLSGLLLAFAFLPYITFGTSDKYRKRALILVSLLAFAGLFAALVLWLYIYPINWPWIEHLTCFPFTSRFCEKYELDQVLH
Nature of the assay: cell-based or functional assay.

The target of assay [2] is T2, human iRhom1, endogenously expressed on RH-30 cells (human, UniProt Q96CC6 1-855).
T2 construct: RH-30 cells are described as endogenously negative for iRhom2 but endogenously expressing iRhom1; also called NP_071895.3
T2 sequence: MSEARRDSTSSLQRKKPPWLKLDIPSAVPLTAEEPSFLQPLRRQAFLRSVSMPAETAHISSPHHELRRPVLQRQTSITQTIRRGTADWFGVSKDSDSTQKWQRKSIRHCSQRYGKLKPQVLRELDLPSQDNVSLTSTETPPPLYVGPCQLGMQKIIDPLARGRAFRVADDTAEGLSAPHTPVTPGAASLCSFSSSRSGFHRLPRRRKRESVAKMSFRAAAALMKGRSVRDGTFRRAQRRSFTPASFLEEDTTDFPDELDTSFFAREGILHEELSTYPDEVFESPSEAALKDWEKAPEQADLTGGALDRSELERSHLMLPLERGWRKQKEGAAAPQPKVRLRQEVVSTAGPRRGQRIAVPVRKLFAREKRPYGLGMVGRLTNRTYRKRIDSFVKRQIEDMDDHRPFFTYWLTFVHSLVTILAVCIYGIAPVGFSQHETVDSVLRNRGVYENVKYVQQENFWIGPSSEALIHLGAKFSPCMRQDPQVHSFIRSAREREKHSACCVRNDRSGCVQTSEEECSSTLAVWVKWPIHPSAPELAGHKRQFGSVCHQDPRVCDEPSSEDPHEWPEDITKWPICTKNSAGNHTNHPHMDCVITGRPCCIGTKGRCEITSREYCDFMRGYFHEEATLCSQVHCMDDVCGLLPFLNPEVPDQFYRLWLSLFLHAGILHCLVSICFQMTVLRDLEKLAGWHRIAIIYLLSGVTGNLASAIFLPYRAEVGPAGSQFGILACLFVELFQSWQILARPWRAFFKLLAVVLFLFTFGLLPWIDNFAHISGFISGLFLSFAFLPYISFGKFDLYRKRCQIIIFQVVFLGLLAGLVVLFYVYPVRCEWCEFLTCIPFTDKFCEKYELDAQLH
Nature of the assay: FACS on RH-30 cells (iRhom1-positive, not iRhom2-positive).

Assay [3] deals with T3, dog iRhom2 full length wild type, C-terminally tagged with 3 consecutive copies of the T7 epitope (dog, UniProt Q00M95 1-827).
T3 construct: whole, on cells; also called Dog-iR2-FL-WT-T7
T3 sequence: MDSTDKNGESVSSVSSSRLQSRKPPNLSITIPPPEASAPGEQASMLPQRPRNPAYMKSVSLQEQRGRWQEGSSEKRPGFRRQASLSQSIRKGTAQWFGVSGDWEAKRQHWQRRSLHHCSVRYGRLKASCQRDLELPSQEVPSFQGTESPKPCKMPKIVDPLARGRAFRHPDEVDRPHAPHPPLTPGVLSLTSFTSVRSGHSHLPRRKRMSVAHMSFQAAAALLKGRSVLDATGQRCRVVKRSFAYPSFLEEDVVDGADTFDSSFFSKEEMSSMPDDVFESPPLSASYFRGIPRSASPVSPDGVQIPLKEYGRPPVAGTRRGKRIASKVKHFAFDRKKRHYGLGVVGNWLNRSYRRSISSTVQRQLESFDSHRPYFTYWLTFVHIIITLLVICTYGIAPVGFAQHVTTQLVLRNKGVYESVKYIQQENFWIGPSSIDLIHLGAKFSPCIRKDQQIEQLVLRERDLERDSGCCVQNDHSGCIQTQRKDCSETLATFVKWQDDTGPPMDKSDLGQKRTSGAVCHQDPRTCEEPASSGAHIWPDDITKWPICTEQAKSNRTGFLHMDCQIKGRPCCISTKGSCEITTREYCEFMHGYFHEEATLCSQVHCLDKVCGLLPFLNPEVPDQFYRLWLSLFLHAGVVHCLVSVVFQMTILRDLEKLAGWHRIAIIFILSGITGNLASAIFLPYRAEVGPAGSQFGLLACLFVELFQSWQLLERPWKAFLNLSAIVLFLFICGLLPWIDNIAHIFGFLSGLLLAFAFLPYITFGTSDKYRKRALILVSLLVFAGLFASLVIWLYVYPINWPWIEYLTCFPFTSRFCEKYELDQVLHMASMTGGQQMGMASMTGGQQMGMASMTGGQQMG
Nature of the assay: FACS on MEF-DKO-iR2 Dog cells, 3 µg/ml. Here is the method:
In brief, immortalized MEF-DKO-EV control cells, MEF-DKO-rhesus-iR2-FL-WT-T7 cells, MEF-DKO-cyno-iR2-FL-WT-T7 cells, MEF-DKO-dog-iR2-FL-WT-T7 cells and MEF-DKO-rabbit-iR2-FL-WT-T7 cells, as well as their respective iRhom1 counterparts, were harvested with 10 mM EDTA in PBS, washed and resuspended in FACS buffer (PBS, 3% FBS, 0.05% sodium azide), and seeded in Nunc U-bottom 96-well plates (Thermo Fisher Scientific, USA) at approximately 3×10⁵ cells per well. To pellet cells and remove supernatants, the plates were centrifuged at 1,500 rpm and 4° C. for 3 minutes. For primary staining, cells were resuspended in 100 μl per well of either FACS buffer alone (controls), mouse monoclonal anti-T7 IgG (Merck Millipore, USA) at 3 μg/ml FACS buffer or the antibodies of the present disclosure also at 3 μg/ml FACS buffer and incubated on ice for 1 hour. Afterwards, plates were centrifuged at 1,500 rpm and 4° C. for 3 minutes and washed twice with 200 μl per well of FACS buffer. For secondary staining, cells were spun down and resuspended in 100 μl per well of PE-conjugated goat anti-mouse IgG F(ab′)2 detection fragment (Dianova, Germany) diluted 1:100 in FACS buffer. Protected from light, the cell suspensions were incubated on ice for 1 hour. […] Finally, cells were resuspended in 150 μl per well of FACS buffer and analyzed using a BD Accuri™ C6 Plus flow cytometer (Becton Dickinson, Germany).

B1: chimeric version of antibody 22 (antibody, V domains shown)
VH: QVTLKESGPGILQPSQTLSLTCSFSGFSLSTFGMGVGWIRQPSGKGLEWLAHIWWDDEKYYNSALKSRLTISKATSKNQVFLKIANVDTADTATYYCARISNYGSNYWYFNVWGTGTTVTVSS
VL: QVVLTQSPALMSASPGEKVTMTCSAGSSVSYMYWYQQKPGSSPRVLIYDTSNLASGVPARFTGSGSGTSYSLTISRMEAEDAATYYCQQWNSYPLTFGAGTKLELK
Consider B1, for which, in assay [1], the “inhibition of LPS-induced release of TNFα from PBMCs of rheumatoid arthritis patients, 1 µg/ml, chimeric antibody” value turned out to be 76.5 % inhibition; the “inhibition of PMA-induced release of HB-EGF from PBMCs of rheumatoid arthritis patients, 1 µg/ml, chimeric antibody” value was determined as 54.7 % inhibition; the “inhibition of PMA-induced release of HB-EGF from THP-1 cells, 3 µg/ml” value (“inhibition … from THP-1 cells, 3 µg/ml” for short) is 81.9 % inhibition; the “inhibition of PMA-induced release of HB-EGF from U-937 cells” value (“inhibition … of HB-EGF from U-937 cells” for short) came to 103 % inhibition. Also, in assay [1], the “inhibition of PMA-induced release of IL-6R from PBMCs of rheumatoid arthritis patients, 1 µg/ml, chimeric antibody” value was determined as 61.1 % inhibition; the “inhibition of PMA-induced release of IL-6R from U-937 cells, 3 µg/ml” value (from here on “inhibition … of IL-6R from U-937 cells, 3 µg/ml”) was determined as 85.6 % inhibition; the “inhibition of PMA-induced release of TNFα from U-937 cells, 3 µg/ml” value (from here on “inhibition … of TNFα from U-937 cells, 3 µg/ml”) worked out at 96.5 % inhibition.

B2: chimeric version of antibody 42 (antibody, V domains shown)
VH: B1 VH with F24L, M34R, S63P, A74D, K83R, S101Q, N111D
VL: LIVLTQSPAIMSASPGEKVTMTCGATSRISYMFWYQQKPGSSPRVLIYDTSNLASGVPVRFSGSGSGTSYSLTISRVEAEDVATYYCQQWNSYPLTFGAGTKLELK
As for B2, in assay [1], the “inhibition of LPS-induced release of TNFα from PBMCs of rheumatoid arthritis patients, 1 µg/ml, chimeric antibody” value turned out to be 82.1 % inhibition; the “inhibition of PMA-induced release of HB-EGF from PBMCs of rheumatoid arthritis patients, 1 µg/ml, chimeric antibody” value was 76.1 % inhibition; the “inhibition … from THP-1 cells, 3 µg/ml” value is 80.8 % inhibition; the “inhibition … of HB-EGF from U-937 cells” value was found to be 103 % inhibition. For the same molecule, in assay [1], the “inhibition of PMA-induced release of IL-6R from PBMCs of rheumatoid arthritis patients, 1 µg/ml, chimeric antibody” value was 73.5 % inhibition; the “inhibition … of IL-6R from U-937 cells, 3 µg/ml” value was determined as 91.8 % inhibition; the “inhibition … of TNFα from U-937 cells, 3 µg/ml” value turned out to be 96.5 % inhibition.

B3: chimeric version of antibody 44 (antibody, V domains shown)
VH: B1 VH with G44E, E58D, S63P, A74D, V80I, A85T, D91E, A98S, S101G, N111D
VL: B1 VL with V2I, L10V, S24T, G26S, S30Y, K38T, V45L, A59V, T62S, S92T
B3: in assay [1], the “inhibition of LPS-induced release of TNFα from PBMCs of rheumatoid arthritis patients, 1 µg/ml, chimeric antibody” value worked out at 70.2 % inhibition; the “inhibition of PMA-induced release of HB-EGF from PBMCs of rheumatoid arthritis patients, 1 µg/ml, chimeric antibody” value came out at 37.8 % inhibition; the “inhibition … from THP-1 cells, 3 µg/ml” value is 70.7 % inhibition; the “inhibition … of HB-EGF from U-937 cells” value was 99.2 % inhibition. In addition, in assay [1], the “inhibition of PMA-induced release of IL-6R from PBMCs of rheumatoid arthritis patients, 1 µg/ml, chimeric antibody” value is 53.1 % inhibition; the “inhibition … of IL-6R from U-937 cells, 3 µg/ml” value amounted to 85.2 % inhibition; the “inhibition … of TNFα from U-937 cells, 3 µg/ml” value is 89.2 % inhibition.

B4: chimeric version of antibody 34 (antibody, V domains shown)
VH: QVTLKESGPGILQPSQTLSLTCSFSGFSLSTFSLGVGWIRQSSGKGLEWLAHIWWDDEKYYNPALKSRLTISKDTSKNQVFLKIANVDAADTATYYCARAYYSKSYYALDYWGQGTSVTVSS
VL: DIQMTQSPSSLSASLGERVSLTCRASQEISGYLSWLQQKPDGTIKRLIYAASTLDSGVPKRFSGSRSGSDYSLAISSLESEDFADYYCLQYANFPFTFGSGTKLEIK
Regarding B4, in assay [1], the “inhibition of LPS-induced release of TNFα from PBMCs of rheumatoid arthritis patients, 1 µg/ml, chimeric antibody” value amounted to 66.6 % inhibition; the “inhibition of PMA-induced release of HB-EGF from PBMCs of rheumatoid arthritis patients, 1 µg/ml, chimeric antibody” value turned out to be 30.6 % inhibition; the “inhibition … from THP-1 cells, 3 µg/ml” value was 76.1 % inhibition; the “inhibition … of HB-EGF from U-937 cells” value turned out to be 98.1 % inhibition. Moreover, in assay [1], the “inhibition of PMA-induced release of IL-6R from PBMCs of rheumatoid arthritis patients, 1 µg/ml, chimeric antibody” value is 45.6 % inhibition; the “inhibition … of IL-6R from U-937 cells, 3 µg/ml” value came out at 82.8 % inhibition; the “inhibition … of TNFα from U-937 cells, 3 µg/ml” value stood at 87.4 % inhibition.

B5: chimeric version of antibody 16 (antibody, V domains shown)
VH: QVTLKESGPGILQPSQTLSLTCSFSGFSLSTFALGVGWIRQPSGRGLEWLAHIWWDDDKYYNPALKSRLTISKDTSKNHVFLKIANVDTADTATYYCARITTYYYGMDYWGQGTSVTVSS
VL: DIVLSQSPATLSVTPGDSVSLFCRASQSIGNHLHWYQQESHASPRLLIKYASQSISGIPSRFSGSGSGTDFTLSINSVETEDFGMYFCQQSYNWPLTFGAGTKLELK
notes: Chimeric version made in CHO cells, detected with anti-human IgG; the variable domains are those of clone #16; also called ch16
On to B5, for which the binding result in assay [2] is on record as “no binding (tested: 3 µg/ml)”. In assay [3], the binding result is reported as “binds”. Also, in assay [1], the “inhibition of LPS-induced release of TNFα from PBMCs of rheumatoid arthritis patients, 1 µg/ml, chimeric antibody” value came to 83.6 % inhibition; the “inhibition of PMA-induced release of HB-EGF from PBMCs of rheumatoid arthritis patients, 1 µg/ml, chimeric antibody” value worked out at 66 % inhibition; the “inhibition … from THP-1 cells, 3 µg/ml” value worked out at 73.6 % inhibition; the “inhibition … of HB-EGF from U-937 cells” value is 101 % inhibition. Moreover, in assay [1], the “inhibition of PMA-induced release of IL-6R from PBMCs of rheumatoid arthritis patients, 1 µg/ml, chimeric antibody” value turned out to be 72.3 % inhibition; the “inhibition … of IL-6R from U-937 cells, 3 µg/ml” value was determined as 84.3 % inhibition; the “inhibition … of TNFα from U-937 cells, 3 µg/ml” value was 93.7 % inhibition.
